What all share (assay): Crosslinking/co-immunoprecipitation/mass spectrometry (TMT quantitative proteomics) to identify irisin receptors
Holding throughout (assay type): binding

Test [1] deals with T1, MLO-Y4 cell surface proteins (Mus musculus, UniProt E9PW83).
T1 construct: endogenous in cells; host or cells: MLO-Y4
T1 sequence (E9PW83 1-1143): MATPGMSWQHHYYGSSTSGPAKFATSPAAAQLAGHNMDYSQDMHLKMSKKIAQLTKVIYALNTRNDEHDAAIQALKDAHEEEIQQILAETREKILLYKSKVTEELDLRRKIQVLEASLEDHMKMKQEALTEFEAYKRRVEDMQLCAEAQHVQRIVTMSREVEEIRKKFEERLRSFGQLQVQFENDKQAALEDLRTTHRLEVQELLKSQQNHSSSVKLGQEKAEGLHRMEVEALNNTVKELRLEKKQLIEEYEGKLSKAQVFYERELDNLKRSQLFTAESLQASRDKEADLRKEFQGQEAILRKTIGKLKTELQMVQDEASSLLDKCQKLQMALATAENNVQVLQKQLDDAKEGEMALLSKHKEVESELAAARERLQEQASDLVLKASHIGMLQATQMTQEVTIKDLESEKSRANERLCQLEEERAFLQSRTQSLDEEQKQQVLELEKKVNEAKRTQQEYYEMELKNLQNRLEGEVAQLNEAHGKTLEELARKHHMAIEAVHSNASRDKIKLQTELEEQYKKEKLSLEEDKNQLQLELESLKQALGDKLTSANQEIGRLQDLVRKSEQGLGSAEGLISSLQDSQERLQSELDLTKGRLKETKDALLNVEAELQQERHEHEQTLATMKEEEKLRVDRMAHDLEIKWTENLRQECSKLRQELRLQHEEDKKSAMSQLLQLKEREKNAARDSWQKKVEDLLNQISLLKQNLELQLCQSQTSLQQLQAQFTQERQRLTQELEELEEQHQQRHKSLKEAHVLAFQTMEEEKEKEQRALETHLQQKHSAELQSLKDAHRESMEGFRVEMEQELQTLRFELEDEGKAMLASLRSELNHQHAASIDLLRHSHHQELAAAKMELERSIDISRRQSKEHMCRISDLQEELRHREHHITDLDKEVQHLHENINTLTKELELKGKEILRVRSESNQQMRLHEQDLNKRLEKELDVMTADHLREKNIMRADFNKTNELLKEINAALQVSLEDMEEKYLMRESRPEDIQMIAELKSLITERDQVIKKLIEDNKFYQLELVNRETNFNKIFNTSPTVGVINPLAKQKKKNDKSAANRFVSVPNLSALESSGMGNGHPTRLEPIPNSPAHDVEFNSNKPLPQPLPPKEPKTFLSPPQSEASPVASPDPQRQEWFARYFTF
The settings on record: co-precipitated protein Fam184a (E9PW83_MOUSE). The protocol: (§1) MLO-Y4 cells were seeded on 30×150 mm type-I collagen coated dishes as described in cell culture experiment. At 60% cell density, medium was switched to FreeStyle™ 293 Expression medium. After 4 hours incubation, the cells were chilled on ice for 10 minutes, followed by treatment of 10 nM his-tag irisin or his-tag adipsin for 20 minutes. The cells were then incubated with 1.5 mM DTSSP for 30 minutes on ice to do cross-linking, after washing with 15 ml cold PBS twice. The cross-linking was quenched by addition of a final concentration of 20 mM Tris-pH 7.5. The cells were then harvested and homogenized in 1 ml RIPA buffer containing proteaseinhibitor cocktailand phosphatase-inhibitor cocktail. Whole-cell lysates were homogenized by 10 times passages through a 22G needle fitted to a 3 ml syringe. Homogenized samples were rotated gently in cold room for 20 minutes followed by 15,000×g centrifugation for 10 minutes. After addition of a final concentration of 10 mM imidazole, supernatants were incubated with 100 μl Ni-NTA agarose for 1 hour. After centrifugation at 500×g for 1 minute, the supernatants were aspirated and 1 ml cold RIPA buffer containing 10 mM imidazole were added to the agarose. After 10 minutes rotation in cold room, the supernatants were aspirated and 1 ml cold RIPA buffer containing 30 mM imidazole were added to the agarose. After repeating the washing 3 times, 0.8 ml RIPA buffer containing 250 mM imidazole was added and the agarose was gently rotated in a cold room for 20 minutes. After centrifugation at 1000×g for 2 minutes, the supernatants were transferred to 1.5 ml tube and incubated with 100 μl 0.2% sodium deoxycholate and 100 μl 10% trichloroacetic acid in ice for 1 hour. After centrifugation at 12,000×g for 10 minutes at 4° C., the supernatants were removed and 1 ml cold acetone was added to the pellets followed by vortexing for 10 seconds. After one more washing with cold acetone, the pellets were dried at 37° C., and 39 μl PBS and 13 μl 4×NuPAGE LDS were added to the pellets with a final concentration of 5 mM DTT. Solubilized proteins were incubated at 65° C. for 20 minutes followed by incubation with a final concentration of 14 mM iodoacetamide for 45 minutes in the dark. 38 μl samples were loaded to 4-12% gradient SDS-PAGE for separation followed by Coomassie Blue staining. The gels were submitted to quantitative proteomics.
(§2) For in-gel digestions, gels were stained with Coomassie Blue and were excised into 8 equal segments for control and irisin lanes. Gel pieces were destained and dehydrated with 100% acetonitrile, vacuumed dried, and digested in 25 mM HEPES (pH 8.5) with 500 ng sequencing grade trypsin (Promega) and incubated for an overnight at 37° C. (Shevchenko et al. (1996) Anal. Chem. 68:850-858). Digests were treated with 1% formic acid and purified using C18 Stage-Tips as previously described (Rappsilber et al. (2007) Nat. Protoc. 2:1896-1906). Peptides were eluted with 70% acetonitrile and 1% formic acid, then dried using a speedvac. Isobaric labeling of digested peptides was accomplished using 6-plex tandem mass tag (TMT) reagents (Thermo Fisher Scientific, Rockford, Ill.). Reagents, 5.0 mg, were dissolved in 252 μl acetonitrile (ACN) and 5 μl of the solution was added to the digested peptides dissolved in 25 μl of 200 mM HEPES, pH 8.5. After 1 hour at room temperature, the reaction was quenched by adding 1 μl of 5% hydroxylamine. Labeled peptides were combined and acidified prior to C18 Stage-Tips desalting.
(§3) All LC-MS/MS experiments were performed on an Orbitrap Fusion™ Lumos mass spectrometer (Thermo Fisher Scientific, San Jose, Calif., USA) coupled with a Proxeon EASY-nLC™ 1200 LC pump (Thermo Fisher Scientific). Peptides were separated on a 100 μm inner diameter microcapillary column packed with 35 cm of Accucore™ C18 resin (1.8 μm, 100 Å, Thermo Fisher Scientific). […]

For test [2], the target named is T2, MLO-Y4 cell surface proteins (Mus musculus, UniProt Q9D125).
T2 construct: endogenous in cells; host or cells: MLO-Y4
The following applies: co-precipitated protein Mrps25 (RT25_MOUSE). As to the method:
as §1, §2, §3

Test [3] concerns the target T3, MLO-Y4 cell surface proteins (Mus musculus, UniProt Q9Z138).
T3 construct: endogenous in cells; host or cells: MLO-Y4
The settings on record: co-precipitated protein Ror2 (ROR2_MOUSE). As to the method: as §1, §2, §3

T3 sequence (Q9Z138 34-944): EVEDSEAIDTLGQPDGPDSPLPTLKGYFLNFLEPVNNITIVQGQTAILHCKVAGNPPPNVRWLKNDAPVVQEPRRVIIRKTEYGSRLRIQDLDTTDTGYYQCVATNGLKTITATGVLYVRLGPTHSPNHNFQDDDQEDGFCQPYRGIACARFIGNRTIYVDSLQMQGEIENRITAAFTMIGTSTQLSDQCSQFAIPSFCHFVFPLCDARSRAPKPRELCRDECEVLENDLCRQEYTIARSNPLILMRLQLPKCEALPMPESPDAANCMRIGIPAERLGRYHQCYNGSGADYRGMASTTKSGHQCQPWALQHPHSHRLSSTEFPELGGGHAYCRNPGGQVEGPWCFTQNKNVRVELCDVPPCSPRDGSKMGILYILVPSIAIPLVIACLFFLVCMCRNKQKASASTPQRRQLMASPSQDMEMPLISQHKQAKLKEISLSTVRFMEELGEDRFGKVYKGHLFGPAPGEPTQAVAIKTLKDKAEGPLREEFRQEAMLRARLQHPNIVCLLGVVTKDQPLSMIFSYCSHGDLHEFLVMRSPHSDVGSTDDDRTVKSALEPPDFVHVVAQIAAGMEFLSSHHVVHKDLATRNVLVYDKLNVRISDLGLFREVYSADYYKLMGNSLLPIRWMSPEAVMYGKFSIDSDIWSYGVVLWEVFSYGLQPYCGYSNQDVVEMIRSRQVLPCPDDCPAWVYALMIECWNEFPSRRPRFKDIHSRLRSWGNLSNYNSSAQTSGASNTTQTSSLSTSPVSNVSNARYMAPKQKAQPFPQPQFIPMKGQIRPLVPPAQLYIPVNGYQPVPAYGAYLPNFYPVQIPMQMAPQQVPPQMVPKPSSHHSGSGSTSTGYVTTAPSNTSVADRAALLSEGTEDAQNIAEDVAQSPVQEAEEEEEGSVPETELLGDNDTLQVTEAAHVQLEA

B1: irisin: secreted cleaved form of FNDC5; recombinant human/mouse irisin with C-terminal his tag produced in HEK293 cells (protein)
chain: DSPSAPVNVTVRHLKANSAVVSWDVLEDEVVIGFAISQQKKDVRMLRFIQEVNTTTRSCALWDLEEDTEYIVHVQAISIQGQSPASEPVLFKTPREAEKMASKNKDEVTMKE
modifications: left off: small tags and cut ends
notes: secreted cleaved form of FNDC5; recombinant human/mouse irisin with C-terminal his tag produced in HEK293 cells
Consider B1, for which the TMT signal-to-noise ratio in test [1] is given as 8.102; in test [2], 10.7103; in test [3], 39.5932. Moreover, the entries for the “irisin/adipsin TMT signal-to-noise ratio” value in test [1], in test [2] and in test [3] were 0.009, 0.126 and 0.585, respectively.
